Assays:
[1] = target: T1, FDX1 WT (aa 61-184), N-terminal hexa-histidine tag (human), P10109; test: Temperature-Related Intensity Change (TRIC) fluorescence; 100 nM Red-Tris-NTA-labelled His-tagged FDX1 WT or variant as target, tagless LIAS serially diluted (10 points from 63 µM); anaerobic; 25 mM MOPS pH 7.5, 125 mM KCl, 125 mM NaCl, 5% glycerol, 0.05% Tween; 30 min at room temperature, read at 22 °C; Dianthus NT.23; details: remark: other sources report otherwise
T1 chain: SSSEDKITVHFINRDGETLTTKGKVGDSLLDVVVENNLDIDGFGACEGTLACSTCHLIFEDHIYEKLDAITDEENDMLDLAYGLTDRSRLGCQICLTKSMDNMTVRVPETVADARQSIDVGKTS

[2] = target: T2, FDXR (a.a 33-491), tagless (human, UniProt P22570 33-491, labelled with the RED-NHS 2nd generation protein labeling kit); test: Temperature-Related Intensity Change (TRIC) fluorescence; 50 nM RED-NHS-labelled tagless FDXR as target, His-tagged FDX1 WT or variant serially diluted (11 points from 54-68 µM); anaerobic; 25 mM MOPS pH 7.5, 125 mM KCl, 125 mM NaCl, 5% glycerol, 0.05% Tween; 30 min at room temperature, read at 22 °C; Dianthus NT.23; details: both partners purified
T2 construct: ferredoxin reductase (FDXR), human, residues 33-491, lacking the mitochondrial transit peptide; pDWSUMO; Cleavage of the SUMO tag by ULP1 leaves a Gly-His appendage at the N-terminus; also called ferredoxin reductase; mitochondrial NADPH-dependent ferredoxin reductase; source: E. coli BL21 (DE3), purified; not shown: His6-SUMO, N-terminal, cleaved
T2 sequence (looked up): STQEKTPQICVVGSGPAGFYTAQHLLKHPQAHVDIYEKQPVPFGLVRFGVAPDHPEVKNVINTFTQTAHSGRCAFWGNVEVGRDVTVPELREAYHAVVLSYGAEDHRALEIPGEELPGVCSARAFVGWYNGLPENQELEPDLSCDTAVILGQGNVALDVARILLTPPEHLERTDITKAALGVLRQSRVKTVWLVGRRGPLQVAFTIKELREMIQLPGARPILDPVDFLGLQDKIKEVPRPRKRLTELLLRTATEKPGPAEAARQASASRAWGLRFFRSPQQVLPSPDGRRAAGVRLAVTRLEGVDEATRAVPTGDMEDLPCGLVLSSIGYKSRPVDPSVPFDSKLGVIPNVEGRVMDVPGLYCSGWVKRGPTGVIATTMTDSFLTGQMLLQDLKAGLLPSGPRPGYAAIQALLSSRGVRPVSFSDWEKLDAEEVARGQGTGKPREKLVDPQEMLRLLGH

[3] = target: T3, LIAS (aa 28-372), tagless (UniProt O43766 28-372); test: Temperature-Related Intensity Change (TRIC) fluorescence; 100 nM Red-Tris-NTA-labelled His-tagged FDX1 WT or variant as target, tagless LIAS serially diluted (10 points from 63 µM); anaerobic; 25 mM MOPS pH 7.5, 125 mM KCl, 125 mM NaCl, 5% glycerol, 0.05% Tween; 30 min at room temperature, read at 22 °C; Dianthus NT.23; details: both partners purified
T3 construct: lipoic acid synthase (LIAS), residues 28-372, lacking the mitochondrial transit peptide; pDWSUMO; Cleavage of the SUMO tag by ULP1 leaves a Gly-His appendage at the N-terminus; Carries reconstituted Fe-S clusters; also called lipoic acid synthase; source: E. coli BL21 (DE3) carrying pDB1282, purified, iron-sulfur clusters reconstituted; not shown: His6-SUMO, N-terminal, cleaved
T3 sequence (looked up): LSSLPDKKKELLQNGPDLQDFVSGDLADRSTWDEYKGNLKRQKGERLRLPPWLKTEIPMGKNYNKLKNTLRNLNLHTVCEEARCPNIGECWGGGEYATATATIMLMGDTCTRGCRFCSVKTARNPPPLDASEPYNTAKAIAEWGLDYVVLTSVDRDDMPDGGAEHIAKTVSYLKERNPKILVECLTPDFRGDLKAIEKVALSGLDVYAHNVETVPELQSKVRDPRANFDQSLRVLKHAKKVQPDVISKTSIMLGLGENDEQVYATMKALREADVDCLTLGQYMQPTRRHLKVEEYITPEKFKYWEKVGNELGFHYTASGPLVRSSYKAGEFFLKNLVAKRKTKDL

Binder	Kd [1] [nM]	Kd [2] [nM]	Kd [3] [nM]
LIAS (aa 28-372), tagless, O43766 28-372 (enzyme) LSSLPDKKKELLQNGPDLQDFVSGDLADRSTWDEYKGNLKRQKGERLRLPPWLKTEIPMGKNYNKLKNTLRNLNLHTVCEEARCPNIGECWGGGEYATATATIMLMGDTCTRGCRFCSVKTARNPPPLDASEPYNTAKAIAEWGLDYVVLTSVDRDDMPDGGAEHIAKTVSYLKERNPKILVECLTPDFRGDLKAIEKVALSGLDVYAHNVETVPELQSKVRDPRANFDQSLRVLKHAKKVQPDVISKTSIMLGLGENDEQVYATMKALREADVDCLTLGQYMQPTRRHLKVEEYITPEKFKYWEKVGNELGFHYTASGPLVRSSYKAGEFFLKNLVAKRKTKDL	3200	–	–
FDX1 WT (aa 61-184), N-terminal hexa-histidine tag (domain or fragment, human, UniProt P10109 61-184, looked up, ferredoxin 1 (FDX1), human, residues 61-184, lacking the mitochondrial transit peptide; pET28a; Carries a reconstituted Fe-S cluster; In the FDX1-LIAS TRIC assay it was labelled on the His tag with the Red-Tris-NTA 2nd generation dye; in the FDXR assay it was the unlabelled ligand; also called ferredoxin 1; source: E. coli BL21 (DE3) carrying pDB1282, purified, iron-sulfur cluster reconstituted; …) SSSEDKITVHFINRDGETLTTKGKVGDSLLDVVVENNLDIDGFGACEGTLACSTCHLIFEDHIYEKLDAITDEENDMLDLAYGLTDRSRLGCQICLTKSMDNMTVRVPETVADARQSIDVGKTS	–	1500 ± 200	–
FDX1 D139R (aa 61-184), N-terminal hexa-histidine tag (domain or fragment, human, UniProt P10109 61-184, looked up, ferredoxin 1 (FDX1), human, residues 61-184, lacking the mitochondrial transit peptide; pET28a; Carries a reconstituted Fe-S cluster; Labelled with Red-Tris-NTA dye in the LIAS assay only; source: E. coli BL21 (DE3) carrying pDB1282, purified, iron-sulfur cluster reconstituted; not shown: His6, N-terminal, kept) SSSEDKITVHFINRDGETLTTKGKVGDSLLDVVVENNLDIDGFGACEGTLACSTCHLIFEDHIYEKLDAITDEENDMLRLAYGLTDRSRLGCQICLTKSMDNMTVRVPETVADARQSIDVGKTS	–	2100 ± 200	2500 ± 600
FDX1 D136A (aa 61-184), N-terminal hexa-histidine tag (domain or fragment, human, UniProt P10109 61-184, looked up, ferredoxin 1 (FDX1), human, residues 61-184, lacking the mitochondrial transit peptide; pET28a; Carries a reconstituted Fe-S cluster; Labelled with Red-Tris-NTA dye in the LIAS assay only; source: E. coli BL21 (DE3) carrying pDB1282, purified, iron-sulfur cluster reconstituted; not shown: His6, N-terminal, kept) SSSEDKITVHFINRDGETLTTKGKVGDSLLDVVVENNLDIDGFGACEGTLACSTCHLIFEDHIYEKLDAITDEENAMLDLAYGLTDRSRLGCQICLTKSMDNMTVRVPETVADARQSIDVGKTS	–	1800 ± 300	3200 ± 300
FDX1 D136R (aa 61-184), N-terminal hexa-histidine tag (domain or fragment, human, UniProt P10109 61-184, looked up, ferredoxin 1 (FDX1), human, residues 61-184, lacking the mitochondrial transit peptide; pET28a; Carries a reconstituted Fe-S cluster; Labelled with Red-Tris-NTA dye in the LIAS assay only; source: E. coli BL21 (DE3) carrying pDB1282, purified, iron-sulfur cluster reconstituted; not shown: His6, N-terminal, kept) SSSEDKITVHFINRDGETLTTKGKVGDSLLDVVVENNLDIDGFGACEGTLACSTCHLIFEDHIYEKLDAITDEENRMLDLAYGLTDRSRLGCQICLTKSMDNMTVRVPETVADARQSIDVGKTS	–	2200 ± 300	4500 ± 800
FDX1 D139A (aa 61-184), N-terminal hexa-histidine tag (domain or fragment, human, UniProt P10109 61-184, looked up, ferredoxin 1 (FDX1), human, residues 61-184, lacking the mitochondrial transit peptide; pET28a; Carries a reconstituted Fe-S cluster; Labelled with Red-Tris-NTA dye in the LIAS assay only; source: E. coli BL21 (DE3) carrying pDB1282, purified, iron-sulfur cluster reconstituted; not shown: His6, N-terminal, kept) SSSEDKITVHFINRDGETLTTKGKVGDSLLDVVVENNLDIDGFGACEGTLACSTCHLIFEDHIYEKLDAITDEENDMLALAYGLTDRSRLGCQICLTKSMDNMTVRVPETVADARQSIDVGKTS	–	1500 ± 300	4900 ± 600

From publication PMC12855868, “Deep Mutational Scanning of FDX1 Identifies Key Structural Determinants of Lipoylation and Cuproptosis” (Nature Communications, 2025)
